From patent US20210070872A1 (AGENUS, published 2021) come the findings set out here.

Positions count from the first letter of the chain named.

The target in this experiment is T1, biotinylated GITR (human, UniProt Q9Y5U5 26-161, limits assumed, biotinylated (sites not given)).
T1 construct: also called GITR-bio; Biotin-GITR
T1 sequence: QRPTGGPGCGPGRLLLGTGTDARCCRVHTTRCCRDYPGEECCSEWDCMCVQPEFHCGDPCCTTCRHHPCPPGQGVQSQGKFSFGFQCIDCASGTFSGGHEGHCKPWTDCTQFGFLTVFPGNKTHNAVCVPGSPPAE
The experiment is described as follows: BLI (Octet), biotin-GITR on streptavidin tips, antibody supernatant. The procedure: Several hundred germlined antibodies were selected based on binding kinetics as determined by Octet measurements (Octet RED 96 system; ForteBio™ Inc., Menlo Park, Calif.). The experimental procedure was configured according to the instruction manual of the instrument. Biotin-GITR was bound to Streptavidin biosensor (SA) and PBS (pH 7.4) was used as a blank control. Briefly, the interaction analyses were conducted at 30° C. in running buffer (PBS, 0.05% Tween, pH7.4). Sensor tips were pre-wet for 10 minutes in running buffer immediately prior to use, and the micro plates used in the Octet were filled with 200 μl of sample or buffer per well and agitated at 800 rpm. For the experiments, commercially available precoated SA tips were used. Biotinylated GITR was loaded onto the ForteBio SA fibers in PBS pH7.4 for 10 minutes and washed for 4 minutes. For the association phase, the ligand-coated SA tips were immersed for 5 minutes in cell culture supernatant that was diluted 1:10 in running buffer prior to the measurement. Dissociation of the antibody-antigen complex was measured in wells containing the Octet buffer alone for 5 minutes. After each run, the tips were regenerated with Glycine (10 mM, pH 2.0). Affinity, Kₒₙ and Koff were determined with Octet evaluation software v6.3 using a 1:1 binding model with local full fitting.
Background: Biolayer interferometry detects binding as a change in optical thickness at a sensor tip.

B1: germline variant antibody 68 (H1917B01 / K1917B01) (antibody, V domains shown)
VH: QVQLVQSGTEVKKPGASVKVSCKGSGYTFTGYAMYWVRQAPGQGLEWIGLIRTYSGGVTYNQKFRGRVTMTVDTSISTAYMELSRLRSDDTAVYYCAKSGTVRGFAYWGQGTLVTVSS
VL: DIVMTQSPDSLAVSLGERATINCKSSQSLLNSGNQKNYLTWYQQKPGQPPKMLIYWASTRESGVPDRFTGSGSGTDFTLTISSLQAEDVAVYYCQNDYSYPYTFGQGTKLEIK
notes: IGHG1/IGKC expression vectors; measured from CHO culture supernatant; also called Antibody ID 68
As to B1, binding was put at a Kd of 1.55 nM, the koff came out at 0.000447 s⁻¹ and the on-rate constant (kon) was 289000 M⁻¹ s⁻¹.

B2: germline variant antibody 43 (H1916E03 / K1916E03) (antibody, V domains shown)
VH: B1 VH with T9A, G31E, L45M, Y54F, G57D, T59S, R65K, V68A, T74K
VL: B1 VL with L84V, Y93H
notes: IGHG1/IGKC expression vectors; measured from CHO culture supernatant; also called Antibody ID 43
In turn, B2 displayed a Kd of 1.28 nM, a dissociation rate constant (koff) of 0.000477 s⁻¹ and a kon of 373000 M⁻¹ s⁻¹.

B3: germline variant antibody 107 (H1917H09 / K1917H09) (antibody, V domains shown)
VH: B1 VH with T9A, I48M, L50V, G57D, T59S, G66D
VL: B1 VL with T40S, Q43H, M52L, L84V
notes: IGHG1/IGKC expression vectors; measured from CHO culture supernatant
In the case of B3, the Kd is 2.21 nM, the koff came out at 0.000657 s⁻¹ and the kon was found to be 298000 M⁻¹ s⁻¹.

B4: germline variant antibody 55 (H1916F10 / K1916F10) (antibody, V domains shown)
VH: B1 VH with G24A, G31D, R65Q
VL: B1 VL with T40S, M52L, T69S, L84V, Y93H, Y100F
notes: IGHG1/IGKC expression vectors; measured from CHO culture supernatant; also called Antibody ID 55
For the molecule B4, the Kd was determined as 1.27 nM, the koff stood at 0.00055 s⁻¹ and the on-rate constant (kon) was determined as 435000 M⁻¹ s⁻¹.

B5: germline variant antibody 101 (H1917H01 / K1917H01) (antibody, V domains shown)
VH: B1 VH with T9A, G24A, G31D, Y35H, I48M, Y54F, T59S, R65Q, G66D, T74K
VL: B1 VL with G33S, Q43H, M52L, T69S, L84V, Y93H, Y100F
notes: as for B3
The molecule B5 displayed a Kd of 0.354 nM, a koff of 0.000332 s⁻¹ and an on-rate constant (kon) of 936000 M⁻¹ s⁻¹.

B6: germline variant antibody 102 (H1917H02 / K1917H02) (antibody, V domains shown)
VH: B1 VH with G24A, L50V, T59S, G66D
VL: B1 VL with G33S, T40S, M52L, L84V
notes: IGHG1/IGKC expression vectors; measured from CHO culture supernatant; also called Antibody ID 102
In the case of B6, binding was characterised by a dissociation constant (Kd) of 1.97 nM, the off-rate constant (koff) stood at 0.000632 s⁻¹ and the kon came to 321000 M⁻¹ s⁻¹.

B7: germline variant antibody 46 (H1916E06 / K1916E06) (antibody, V domains shown)
VH: B1 VH with T9A, G24A, G31E, I48M, Y54F, G57D, V58L, T59S
VL: B1 VL with T40S, Q43H, M52L, Y93H
notes: IGHG1/IGKC expression vectors; measured from CHO culture supernatant; also called Antibody ID 46
Molecule B7 returned an equilibrium dissociation constant (Kd) of 0.619 nM, an off-rate constant (koff) of 0.000248 s⁻¹ and an on-rate (kon) of 400000 M⁻¹ s⁻¹.

B8: germline variant antibody 96 (H1917G06 / K1917G06) (antibody, V domains shown)
VH: B1 VH with T9A, G31E, L45M, I48M, L50V, V58L, G66D
VL: B1 VL with G33S, T40S, Q43H, M52L, T69S, Y93H
notes: IGHG1/IGKC expression vectors; measured from CHO culture supernatant; also called Antibody ID 96
Molecule B8 returned a Kd of 1.09 nM, an off-rate (koff) of 0.000373 s⁻¹ and a kon of 344000 M⁻¹ s⁻¹.

B9: germline variant antibody 52 (H1916F05 / K1916F05) (antibody, V domains shown)
VH: B1 VH with G31D, I48M, T59S, G66E, T74K
VL: B1 VL with M52L, T69S, Y93H, Y100F
notes: IGHG1/IGKC expression vectors; measured from CHO culture supernatant; also called Antibody ID 52
For the molecule B9, the dissociation constant Kd was found to be 1.07 nM, the off-rate constant (koff) came to 0.000426 s⁻¹ and the kon stood at 397000 M⁻¹ s⁻¹.

B10: germline variant antibody 94 (H1917G01 / K1917G01) (antibody, V domains shown)
VH: B1 VH with L50V, Y54F, G66D, T74K, L113F
VL: B1 VL with M52L, L84V, Y93H
notes: IGHG1/IGKC expression vectors; measured from CHO culture supernatant; also called Antibody ID 94
Consider B10, for which the affinity, expressed as Kd, was 1.18 nM; the koff is 0.00044 s⁻¹; the kon turned out to be 372000 M⁻¹ s⁻¹.

B11: germline variant antibody 105 (H1917H07 / K1917H07) (antibody, V domains shown)
VH: B1 VH with T9A, G31E, I48M, Y54F, T59S, R65K
VL: B1 VL with T40S, M52L, T69S, L84V
notes: as for B3
The molecule B11 had a Kd of 1.38 nM, a dissociation rate constant (koff) of 0.000486 s⁻¹ and a kon of 351000 M⁻¹ s⁻¹.

B12: germline variant antibody 61 (H1917A02 / K1917A02) (antibody, V domains shown)
VH: B1 VH with G24A, G31E, Y35H, I48M, T59S, R65Q, G66E, T74K
VL: B1 VL with T40S, M52L, T69S, L84V, Y100F
notes: IGHG1/IGKC expression vectors; measured from CHO culture supernatant; also called Antibody ID 61
B12 came in with a dissociation constant (Kd) of 1.83 nM, a koff of 0.00141 s⁻¹ and a kon of 772000 M⁻¹ s⁻¹.

B13: germline variant antibody 58 (H1916G04 / K1916G04) (antibody, V domains shown)
VH: B1 VH with T9A, G31D, I48M, L50V, R65K, V68A, T74K
VL: B1 VL with T40S, Q43H, M52L, T69S, L84V, Y93H
notes: IGHG1/IGKC expression vectors; measured from CHO culture supernatant; also called Antibody ID 58
In the case of B13, the affinity, expressed as Kd, was 1.58 nM; the dissociation rate constant (koff) was 0.000415 s⁻¹; the kon stood at 263000 M⁻¹ s⁻¹.

B14: germline variant antibody 50 (H1916F03 / K1916F03) (antibody, V domains shown)
VH: B1 VH with G24A, G31D, Y54F, T59S, R65K, G66E, T74K
VL: B1 VL with G33S, T69S
notes: IGHG1/IGKC expression vectors; measured from CHO culture supernatant; also called Antibody ID 50
As to B14, the dissociation constant Kd is 1.01 nM, the off-rate (koff) is 0.000254 s⁻¹ and the on-rate constant (kon) stood at 252000 M⁻¹ s⁻¹.

B15: germline variant antibody 95 (H1917G05 / K1917G05) (antibody, V domains shown)
VH: B1 VH with T9A, G31D, I48M, T59S, L113F
VL: B1 VL with T69S, L84V, Y93H, Y100F
notes: IGHG1/IGKC expression vectors; measured from CHO culture supernatant; also called Antibody ID 95
B15 returned a dissociation constant (Kd) of 2.21 nM, a koff of 0.000672 s⁻¹ and a kon of 305000 M⁻¹ s⁻¹.

The Kd is the equilibrium constant for the complex coming apart. A high value points to weaker binding. For orientation: koff means the rate constant with which the complex falls apart. One may read the kon as a measure of how fast the partners come together. High values mean faster complex formation, low ones slower complex formation.
